Test results as given in patent US20250144178A1, “PHARMACEUTICAL COMPOSITION FOR CANCER TREATMENT COMPRISING FUSION PROTEIN INCLUDING IL-12 AND ANTI-FAP ANTIBODY AND ANTICANCER AGENT” (KANAPH THERAPEUTICS INC., priority 2022, published 2025).
Where two headings read alike, the source gives them in different places.

Experiments:
[1] = test system: LLC1 lung cancer with NIH-3T3 overexpressing FAP; assay: Cancer targeting efficacy, LLC1 co-injected with FAP overexpressing NIH-3T3; type: in vivo, mouse; conditions: FIG. 32
Description: In order to compare the anticancer efficacy according to the cancer targeting of the dual antibody-type fusion protein in which the anti-FAP sequence structure and the IL-12 sequence structure form a Knob-in-Hole structure, the tumor growth inhibitory ability was identified in an animal model co-injected with NIH-3T3 cell overexpressing FAP, a mouse fibroblast cell line, and LLC1, a mouse lung cancer cell line, in a 1:1 ratio.
Specifically, for drug efficacy evaluation, when the size of the tumor reached 70 to 100 mm^3, the mice were randomly divided into groups. As the control, PBS was intraperitoneally administered twice a week. The group administered with T1.16m or T1.17m alone, the group administered with T1.16m and T1.17m in combination (T1.16m+T1.17m), and the group administered with T1.03m were used as test groups to evaluate the tumor growth inhibitory ability. T1.16m and T1.17m, which are dimers of anti-FAP and IL-12, respectively, were intraperitoneally administered twice a week at a dose of 0.01 μg, and T1.03m, which is a monomer fusion protein, was intraperitoneally administered twice a week at a dose of 0.02 μg to observe the tumor growth inhibitory ability.

[2] = test system: HEK-Blue IL-12 cells; assay: Signaling ability in IL-12 recognizing cells (STAT4 inducible SEAP reporter); type: cell-based, human; conditions: serial dilution from 4 nM, 24 hours, FIG. 18
Experimental: The HEK-Blue IL-12 cell line transformed with the IL-12 receptor gene and the STAT4 inducible SEAP reporter gene into HEK293 cells, which are human embryonic kidney fibroblasts, was obtained from Invivogen (San Diego, USA). The HEK-Blue IL-12 cells were maintained in DMEM (GIBCO) containing 10% FBS (GIBCO), 100 μg/ml Normocin and 1×HEK-Blue selection.
Specifically, the HEK-Blue IL-12 cell line, which is an IL-12 recognizing cell, was diluted to 2.8×10^5 cells/ml and dispensed at 180 μl/well. Recombinant human IL-12, T1.01m, T1.02m, T1.03m and T1.12m were suspended at 4 nM and diluted by serial dilution. HEK-Blue IL-12 cells were treated with the diluted recombinant human IL-12, T1.01m, T1.02m, T1.03m and T1.12m. After 24 hours of treatment, the cell supernatant was collected and mixed with QUANTI-Blue Solution (Invivogen) in a 96-well plate. The reporter expression level was measured at 620 nm using a spectrophotometer (Thermo Fisher).

[3] = target: T1, recombinant mouse FAP (Mus musculus, UniProt P97321); assay: Surface plasmon resonance binding to recombinant mouse FAP; conditions: SPR, 2 μg/ml protein, FIGS. 13 and 14
T1 sequence (P97321 1-761): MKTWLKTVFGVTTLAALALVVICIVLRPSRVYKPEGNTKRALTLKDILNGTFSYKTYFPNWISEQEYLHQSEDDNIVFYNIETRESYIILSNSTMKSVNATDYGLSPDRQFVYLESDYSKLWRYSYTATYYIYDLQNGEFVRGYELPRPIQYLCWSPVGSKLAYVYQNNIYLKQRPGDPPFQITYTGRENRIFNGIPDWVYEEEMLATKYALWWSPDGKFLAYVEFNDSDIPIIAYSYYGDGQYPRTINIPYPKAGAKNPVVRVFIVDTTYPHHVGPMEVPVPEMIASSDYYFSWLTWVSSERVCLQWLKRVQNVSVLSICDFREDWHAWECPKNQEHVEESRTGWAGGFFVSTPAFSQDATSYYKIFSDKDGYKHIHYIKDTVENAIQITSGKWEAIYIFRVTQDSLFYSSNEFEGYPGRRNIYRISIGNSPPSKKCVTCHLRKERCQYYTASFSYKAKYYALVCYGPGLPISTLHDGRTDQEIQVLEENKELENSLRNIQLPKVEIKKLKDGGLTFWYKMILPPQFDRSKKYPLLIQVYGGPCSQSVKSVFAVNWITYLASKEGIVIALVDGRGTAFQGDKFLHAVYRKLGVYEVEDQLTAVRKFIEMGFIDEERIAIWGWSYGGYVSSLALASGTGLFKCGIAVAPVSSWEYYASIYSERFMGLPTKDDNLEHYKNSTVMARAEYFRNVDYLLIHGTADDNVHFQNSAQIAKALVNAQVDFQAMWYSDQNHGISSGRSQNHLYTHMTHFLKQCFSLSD
Experimental: The surface of the CM5 chip was activated with a 1:1 mixture of […] (N-hydroxysuccinimide) and […] (1-Ethyl-3-(3-dimethylaminopropyl) carbodiimide), and 25 μg/ml of anti-mouse IgG (Fc) antibody was immobilized for 400 seconds at a rate of 10 μl/min. The remaining active ester groups were blocked with 1 M ethanolamine. T1.01m, T1.02m and T1.03m were diluted to 2 μg/ml and reacted on the CM5 chip immobilized with the anti-mouse IgG (Fc) antibody. The recombinant mouse FAP was diluted to 200 nM in 1×HBS-EP+buffer solution and diluted by serial dilution. The diluted recombinant mouse FAP was reacted at a rate of 30 μl/min. The association and dissociation times were 180 seconds and 400 seconds, respectively. After the dissociation, stabilization was performed for 60 seconds, and then a regeneration was performed for 30 seconds with a 10 mM glycine pH 1.5 solution at a rate of 30 μl/min.

[4] = test system: LLC1 lung cancer with NIH-3T3 overexpressing FAP; type: in vivo, C57BL/6J mice
Experimental: Specifically, the NIH-3T3 cell line overexpressing FAP and the LLC1 cells were resuspended in Hanks' Balanced salt solution (HBSS, Gibco) at a concentration of 1×10^6 cells/50 μl, respectively, and the cells were mixed in a 1:1 ratio, and then 100 μl per each mouse was transplanted into the subcutaneous region of the right flank of 6-week-old C57BL/6J mice using a 1 cc syringe (25G).
(§1) Next, for drug efficacy evaluation, when the size of the tumor reached 70 to 100 mm^3, the mice were randomly divided into groups. As the control, PBS was administered, and as the test group, T1.03m was intravenously administered once at a dose of 10 μg and 100 μg.

[5] = test system: FAP-overexpressing mouse colorectal cancer CT26; assay: Tumor growth inhibition by IL-12 mutation, FAP-overexpressing CT26, single i.v. dose; type: in vivo, BALB/c mice; conditions: 10 μg i.v. once, FIG. 28
Experimental: In order to evaluate the change in IL-12 activity according to the presence and extent of amino acid mutation, FAP-overexpressing mouse colorectal cancer CT26 was prepared by resuspending in PBS at a concentration of 5×10^5 cells/100 μl, and the tumor growth inhibitory ability was evaluated in a tumor animal model prepared by transplantation of the cells into 5-week-old female BALB/c mice.
Specifically, when the size of the tumor in the model reached 100 mm^3, the mice were randomly divided into groups. 100 μl of phosphate buffered saline (PBS) was administered once via tail vein injection of the control, and each of T1.01m, T1.02m and T1.03m was intravenously administered once at a dose of 10 μg.

[6] = test system: mouse FAP overexpressing B16F10 melanoma; assay: Melanoma model, mouse FAP overexpressing B16F10; type: in vivo, C57BL/6J mice; conditions: during the test period
Experimental: In order to identify the anticancer effect through immune activation of the fusion protein, mouse FAP was overexpressed in the mouse melanoma cell line B16F10, which is known to have little immune cell infiltration, and then transplanted into C57BL/6J mice, and the tumor growth inhibitory ability was evaluated.
Specifically, the cells in culture were resuspended in Hanks' Balanced salt solution (HBSS, Gibco), and then 100 μl of 1×10^6 tumor cells per each mouse were transplanted into the subcutaneous region of the left the dorsal flank side of 6-week-old C57BL/6J mice.
as §1

[7] = test system: FAP-overexpressing mouse colorectal cancer cell line CT26 cells; assay: Single administration of T1.03m in FAP-overexpressing CT26 model; type: in vivo, BALB/c mice
Experimental: Specifically, the tumor cells were transplanted into the right dorsal flank side of 6-week-old BALB/c mice, and when the size of the tumor of the animal model reached 70 to 100 mm^3, the mice were randomly divided into groups and the administration was performed. As the control, PBS was administered, and as the test group, 100 μl of T1.03m was intravenously administered once at a dose of 2 μg, 10 μg and 100 μg. The size of the tumor was measured in the same manner as in Example 4.1.

B1: T1.03m: K&H bispecific: anti-mu FAP/mu IL-12 mut2, mu IgG2a DANG (seq18, seq19, seq22) (antibody)
heavy: QVQLQQSGAELARPGASVNLSCKASGYTFTNNGINWLKQRTGQGLEWIGEIYPRSTNTLYNEKFKGKATLTADRSSNTAYMELRSLTSEDSAVYFCARTLTAPFAFWGQGTLVTVSAAKTTAPSVYPLAPVCGDTTGSSVTLGCLVKGYFPEPVTLTWNSGSLSSGVHTFPAVLQSDLYTLSSSVTVTSSTWPSQSITCNVAHPASSTKVDKKIEPRGPTIKPCPPCKCPAPNLLGGPSVFIFPPKIKDVLMISLSPIVTCVVVAVSEDDPDVQISWFVNNVEVHTAQTQTHREDYGSTLRVVSALPIQHQDWMSGKEFKCKVNNKDLPAPIERTISKPKGSVRAPQVYVLPPPEEEMTKKQVTLWCMVTDFMPEDIYVEWTNNGKTELNYKNTEPVLDSDGSYFMYSKLRVEKKNWVERNSYSCSVVHEGLHNHHTTKSFSRTPGK
light: QIVLTQSPAIMSASPGEKVTMTCSASSGVNFMHWYQQKSGTSPKRWIFDTSKLASGVPARFSGSGSGTSYSLTISSMEAEDAATYYCQQWSFNPPTFGGGTKLEIKRADAAPTVSIFPPSSEQLTSGGASVVCFLNNFYPKDINVKWKIDGSERQNGVLNSWTDQDSKDSTYSMSSTLTLTKDEYERHNSYTCEATHKTSTSPIVKSFNRNEC
chain: MWELEKDVYVVEVDWTPDAPGETVNLTCDTPEEDDITWTSDQRHGVIGSGKTLTITVKEFLDAGQYTCHKGGETLSHSHLLLHKKENGIWSTEILKNFKNKTFLKCEAPNYSGRFTCSWLVQRNMDLKFNIKSSSSSPDSRAVTCGMASLSAEKVTLDQRDYEKYSVSCQEDVTCPTAEETLPIELALEARQQNKYENYSTSFFIRDIIKPDPPKNLQMKPLKNSQVEVSWEYPDSWSTPHSYFSLKFFVRIQAAAEKMAETEEGCNQKGAFLVEKTSTEVQCKGGNVCVQAQDRYYNSSCSKWACVPCRVRSGGGGSGGGGSGGGGSRVIPVSGPARCLSQSRNLLKTTDDMVKTAREKLKHYSCTAEDIDHEDITRDQTSTLKTCLPLELHKNESCLATRETSSTTRGSCLPPQKTSLMMTLCLGSIYEDLKMYQTEFQAINAALQNHNHQQIILDKGMLVAIDELMQSLNHNGETLRQKPPVGEADPYRVKMKLCILLHAFSTRVVTINRVMGYLSSAGGGGSGGGGSEPRGPTIKPCPPCKCPAPNLLGGPSVFIFPPKIKDVLMISLSPIVTCVVVAVSEDDPDVQISWFVNNVEVHTAQTQTHREDYGSTLRVVSALPIQHQDWMSGKEFKCKVNNKDLPAPIERTISKPKGSVRAPQVYVLPPPEEEMTKKQVTLSCAVTDFMPEDIYVEWTNNGKTELNYKNTEPVLDSDGSYFMVSKLRVEKKNWVERNSYSCSVVHEGLHNHHTTKSFSRTPGK
B1 was tested, and the “tumor growth inhibitory ability compared to the control” value ([1]; 0.02 μg i.p. twice a week, 10 days after administration, control PBS) was “excellent tumor growth inhibitory ability”, the “tumor growth inhibitory ability compared with T1.16m or T1.17m alone and their combination” value ([1]; T1.03m 0.02 μg, T1.16m and T1.17m 0.01 μg, i.p. twice a week) was “excellent tumor growth inhibitory ability” and the “IL-12 recognition / STAT4 reporter gene expression (620 nm absorbance)” value [2] was “IL-12 was recognized, and STAT4 expressed a reporter gene by inducing phosphorylation”. For the same molecule, the “Binding to recombinant mouse FAP” value [3] was “may bind to recombinant mouse FAP to specifically target FAP”, the “tumor growth inhibitory ability compared to the control” value ([4]; 10 μg or 100 μg i.v. once, control PBS, FIG. 31) was “excellent tumor growth inhibitory ability” and the “change in body weight” value ([4]; mouse, in vivo) was “No change in body weight”. For the same molecule, the “tumor growth inhibitory ability compared to the control” value ([5]; 15 days after administration, control PBS) was “excellent tumor growth inhibitory ability”, the “tumor growth inhibitory ability compared to the group administered with T1.01m” value [5] was “reduced” and the “change in body weight” value [6] was “No change in body weight”. For the same molecule, the “tumor growth inhibitory ability compared to the control” value ([7]; 2 μg, 10 μg and 100 μg i.v. once, control PBS, FIG. 29) was “high tumor growth inhibitory ability” and the “change in body weight” value ([7]; during the test period) was “No change in body weight”.
